For the test, the target named is T1, biotinylated CREBL1 (Homo sapiens, UniProt Q99941).
T1 construct: made in house; host or cells: cell-free: rabbit reticulocyte lysate (TNT Transcription/Translation System, Promega); the unpurified reaction solution was used
T1 sequence (Q99941 1-703): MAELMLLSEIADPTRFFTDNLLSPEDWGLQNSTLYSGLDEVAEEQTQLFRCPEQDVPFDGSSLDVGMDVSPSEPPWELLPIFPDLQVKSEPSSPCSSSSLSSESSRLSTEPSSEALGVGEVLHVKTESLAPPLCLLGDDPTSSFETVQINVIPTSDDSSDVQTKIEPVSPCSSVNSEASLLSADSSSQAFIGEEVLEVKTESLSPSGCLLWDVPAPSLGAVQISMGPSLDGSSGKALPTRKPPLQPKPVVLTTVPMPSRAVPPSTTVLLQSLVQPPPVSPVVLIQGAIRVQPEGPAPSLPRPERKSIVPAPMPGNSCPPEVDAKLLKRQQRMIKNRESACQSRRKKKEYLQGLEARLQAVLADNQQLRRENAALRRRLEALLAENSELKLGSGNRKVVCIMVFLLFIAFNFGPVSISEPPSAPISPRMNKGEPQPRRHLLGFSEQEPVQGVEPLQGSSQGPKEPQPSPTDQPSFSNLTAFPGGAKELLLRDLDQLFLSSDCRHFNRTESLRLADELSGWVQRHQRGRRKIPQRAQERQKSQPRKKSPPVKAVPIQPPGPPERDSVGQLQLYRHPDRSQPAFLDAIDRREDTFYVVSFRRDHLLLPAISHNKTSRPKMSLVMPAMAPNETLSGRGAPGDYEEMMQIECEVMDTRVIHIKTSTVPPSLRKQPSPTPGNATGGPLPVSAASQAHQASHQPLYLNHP
The test can be described thus: In vitro protease assay using biotinylated CREBL1 (degradation pattern). The class given is biochemical. To be noted: 37° C., 4 hours or overnight. As to the method:
More concretely, first, 1.5 μl of the animal cell expression plasmid for CREBL1 (1 μg/μl), 1 μl of 1 mM methionine, 1 μl of biotinylated lysine tRNA (Promega), and 6.5 μl of nuclease free water were added to 40 μl of in vitro translation reaction solution (TNT® Quick Master Mix) to obtain total volume of 50 μl, and reacted for at 30° C. for 1.5 hours. Following this, 12.5 μl of 50 μl reaction solution was sampled, followed by adding with 2×SDS sample buffer and boiling, to detect the expression of biotinylated CREBL1 by western blotting. The detection was carried out using streptavidin HRP (Promega) and Transcend™ Chemiluminescent substrate (Transcend™ Non-Radioactive Translation detection system; Promega). As a result, biotinylation of CREBL1 was confirmed in sample.
The reaction solution was used as the sample for protease assay. 12.5 μl each of the reaction solution was dispensed to three tubes (Nos. 2 to 4). 25 μl of 50 mM Tris-HCl (pH 7.5), 150 mM NaCl, 0.01% Triton X-100 was added as the control to tube No. 2, 25 μl of 200 μg/m mature HtrA2 solution was added to tube No. 3, and 25 μl of 200 μg/ml mature HtrA2 (S306A) solution was added to tube No. 4, respectively, and mixed. […]

B1: mature HtrA2: SEQ ID NO: 4; mature protein generated from HtrA2 precursor by cleavage of N-terminal 133 residues, has protease activity (protein, listed as Homo sapiens)
chain: MAVPSPPPASPRSQYNFIADVVEKTAPAVVYIEILDRHPFLGREVPISNGSGFVVAADGLIVTNAHVVADRRRVRVRLLSGDTYEAVVTAVDPVADIATLRIQTKEPLPTLPLGRSADVRQGEFVVAMGSPFALQNTITSGIVSSAQRPARDLGLPQTNVEYIQTDAAIDFGNSGGPLVNLDGEVIGVNTMKVTAGISFAIPSDRLREFLHRGEKKNSSSGISGSQRRYIGVMMLTLSPSILAELQLREPSFPDVQHGVLIHKVILGSPAHRAGLRPGDVILAIGEQMVQNAEDVYEAVRTQSQLAVQIRRGRETLTLYVTPEVTE
modifications: mature HtrA2
With B1, the “degradation of N-terminal tagged-CREBL1, detecting the Tag” value (anti-Tag antibody) is given as “The band of N-terminal tagged-CREBL1 was reduced significantly”. For the setting “streptavidin HRP”, the “degradation of biotinylated CREBL1, detecting the biotin” value is “The band of biotinylated CREBL1 was reduced significantly”.

For the origin of these results see patent publication US20070196354A1, “Method of treating diabetes by inhibiting degradation of at least one of crebl1, atf6, and hnf-4 alpha by htra” (priority 2003, published 2007).
